# Results reported in IntAct's records for PubMed 23873930.
# B1: Transmembrane gamma-carboxyglutamic acid protein 4 (Homo sapiens), Q9BZD6 (parent)
# chain: MFTLLVLLSQLPTVTLGFPHCARGPKASKHAGEEVFTSKEEANFFIHRRLLYNRFDLELFTPGNLERECNEELCNYEEAREIFVDEDKTIAFWQEYSAKGPTTKSDGNREKIDVMGLLTGLIAAGVFLVIFGLLGYYLCITKCNRLQHPCSSAVYERGRHTPSIIFRRPEEAALSPLPPSVEDAGLPSYEQAVALTRKHSVSPPPPYPGHTKGFRVFKKSMSLPSH
# partner: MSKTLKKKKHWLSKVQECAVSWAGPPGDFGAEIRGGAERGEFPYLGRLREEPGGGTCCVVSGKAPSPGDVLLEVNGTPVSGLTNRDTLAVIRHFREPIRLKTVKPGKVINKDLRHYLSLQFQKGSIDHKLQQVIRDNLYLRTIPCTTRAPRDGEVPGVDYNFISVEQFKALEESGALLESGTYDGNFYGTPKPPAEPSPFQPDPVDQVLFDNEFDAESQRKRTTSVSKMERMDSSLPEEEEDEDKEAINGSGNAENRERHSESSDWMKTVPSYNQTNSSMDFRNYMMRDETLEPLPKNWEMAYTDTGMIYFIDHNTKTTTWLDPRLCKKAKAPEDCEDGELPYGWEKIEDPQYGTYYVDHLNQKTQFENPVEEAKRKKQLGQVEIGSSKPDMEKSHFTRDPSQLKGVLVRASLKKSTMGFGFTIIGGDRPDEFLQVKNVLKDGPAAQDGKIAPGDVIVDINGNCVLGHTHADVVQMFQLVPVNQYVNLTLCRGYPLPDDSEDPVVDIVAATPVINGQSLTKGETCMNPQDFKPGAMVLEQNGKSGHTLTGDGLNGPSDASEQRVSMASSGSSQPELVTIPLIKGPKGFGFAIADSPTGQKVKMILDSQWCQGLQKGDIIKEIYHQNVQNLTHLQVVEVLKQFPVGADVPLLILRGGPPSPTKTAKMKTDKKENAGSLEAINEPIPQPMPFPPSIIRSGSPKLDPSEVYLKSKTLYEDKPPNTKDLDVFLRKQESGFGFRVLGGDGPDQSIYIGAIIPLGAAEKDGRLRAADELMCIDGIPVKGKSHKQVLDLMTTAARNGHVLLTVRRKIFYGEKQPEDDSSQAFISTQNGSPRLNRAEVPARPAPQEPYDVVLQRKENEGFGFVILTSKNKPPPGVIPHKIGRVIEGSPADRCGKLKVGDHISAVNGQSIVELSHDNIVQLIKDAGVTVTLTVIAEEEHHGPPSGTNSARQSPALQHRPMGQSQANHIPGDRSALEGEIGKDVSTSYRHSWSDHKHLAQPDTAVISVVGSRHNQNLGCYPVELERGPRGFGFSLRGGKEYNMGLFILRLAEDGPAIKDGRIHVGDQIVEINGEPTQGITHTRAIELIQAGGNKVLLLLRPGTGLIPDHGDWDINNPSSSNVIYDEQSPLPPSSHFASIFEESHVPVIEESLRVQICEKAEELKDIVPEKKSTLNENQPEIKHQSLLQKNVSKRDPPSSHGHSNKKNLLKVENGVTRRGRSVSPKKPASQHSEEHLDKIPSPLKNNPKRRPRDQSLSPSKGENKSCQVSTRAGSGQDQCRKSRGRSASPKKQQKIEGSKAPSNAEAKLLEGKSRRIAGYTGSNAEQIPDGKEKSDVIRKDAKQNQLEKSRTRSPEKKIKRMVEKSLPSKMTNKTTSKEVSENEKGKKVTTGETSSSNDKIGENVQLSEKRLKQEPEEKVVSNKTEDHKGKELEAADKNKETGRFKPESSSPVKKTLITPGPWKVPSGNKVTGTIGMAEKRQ
# B2: Transcriptional coactivator YAP1 (Homo sapiens), P46937-3 (parent)
# chain: MDPGQQPPPQPAPQGQGQPPSQPPQGQGPPSGPGQPAPAATQAAPQAPPAGHQIVHVRGDSETDLEALFNAVMNPKTANVPQTVPMRLRKLPDSFFKPPEPKSHSRQASTDAGTAGALTPQHVRAHSSPASLQLGAVSPGTLTPTGVVSGPAATPTAQHLRQSSFEIPDDVPLPAGWEMAKTSSGQRYFLNHIDQTTTWQDPRKAMLSQMNVTAPTSPPVQQNMMNSASAMNQRISQSAPVKQPPPLAPQSPQGGVMGGSNSNQQQQMRLQQLQMEKERLRLKQQELLRQVRPQELALRSQLPTLEQDGGTQNPVSSPGMSQELRTMTTNSSDPFLNSGTYHSRDESTDSGLSMSSYSVPRTPDDFLNSVDEMDTGDTINQSTLPSQQNRFPDYLEAIPGTNVDLGTLEGDGMNIEGEELMPSLQEALSSDILNDMESVLAATKLDKESFLTWL
# partner: B1 chain
# B3: Transmembrane gamma-carboxyglutamic acid protein 4 (Homo sapiens), Q9BZD6 (parent)
# chain: B1 chain
# Variants of: B1
# Conditions: with magi3_human MAGI3, Q5TCQ9
row,Variant,effect of a mutation on the interaction
1,Y207A,with no effect
2,Y189A,disrupting interaction strength

# Variants of: B2
# Conditions: with tmg4_human PRRG4, Q9BZD6
row,Variant,effect of a mutation on the interaction
1,W199A;P202A,disrupting interaction strength
2,S127A,with no effect

# Variants of: B3
# Conditions: with Magi1, Q6RHR9-1
# Magi1, Q6RHR9-1, sequence (Q6RHR9 whole entry): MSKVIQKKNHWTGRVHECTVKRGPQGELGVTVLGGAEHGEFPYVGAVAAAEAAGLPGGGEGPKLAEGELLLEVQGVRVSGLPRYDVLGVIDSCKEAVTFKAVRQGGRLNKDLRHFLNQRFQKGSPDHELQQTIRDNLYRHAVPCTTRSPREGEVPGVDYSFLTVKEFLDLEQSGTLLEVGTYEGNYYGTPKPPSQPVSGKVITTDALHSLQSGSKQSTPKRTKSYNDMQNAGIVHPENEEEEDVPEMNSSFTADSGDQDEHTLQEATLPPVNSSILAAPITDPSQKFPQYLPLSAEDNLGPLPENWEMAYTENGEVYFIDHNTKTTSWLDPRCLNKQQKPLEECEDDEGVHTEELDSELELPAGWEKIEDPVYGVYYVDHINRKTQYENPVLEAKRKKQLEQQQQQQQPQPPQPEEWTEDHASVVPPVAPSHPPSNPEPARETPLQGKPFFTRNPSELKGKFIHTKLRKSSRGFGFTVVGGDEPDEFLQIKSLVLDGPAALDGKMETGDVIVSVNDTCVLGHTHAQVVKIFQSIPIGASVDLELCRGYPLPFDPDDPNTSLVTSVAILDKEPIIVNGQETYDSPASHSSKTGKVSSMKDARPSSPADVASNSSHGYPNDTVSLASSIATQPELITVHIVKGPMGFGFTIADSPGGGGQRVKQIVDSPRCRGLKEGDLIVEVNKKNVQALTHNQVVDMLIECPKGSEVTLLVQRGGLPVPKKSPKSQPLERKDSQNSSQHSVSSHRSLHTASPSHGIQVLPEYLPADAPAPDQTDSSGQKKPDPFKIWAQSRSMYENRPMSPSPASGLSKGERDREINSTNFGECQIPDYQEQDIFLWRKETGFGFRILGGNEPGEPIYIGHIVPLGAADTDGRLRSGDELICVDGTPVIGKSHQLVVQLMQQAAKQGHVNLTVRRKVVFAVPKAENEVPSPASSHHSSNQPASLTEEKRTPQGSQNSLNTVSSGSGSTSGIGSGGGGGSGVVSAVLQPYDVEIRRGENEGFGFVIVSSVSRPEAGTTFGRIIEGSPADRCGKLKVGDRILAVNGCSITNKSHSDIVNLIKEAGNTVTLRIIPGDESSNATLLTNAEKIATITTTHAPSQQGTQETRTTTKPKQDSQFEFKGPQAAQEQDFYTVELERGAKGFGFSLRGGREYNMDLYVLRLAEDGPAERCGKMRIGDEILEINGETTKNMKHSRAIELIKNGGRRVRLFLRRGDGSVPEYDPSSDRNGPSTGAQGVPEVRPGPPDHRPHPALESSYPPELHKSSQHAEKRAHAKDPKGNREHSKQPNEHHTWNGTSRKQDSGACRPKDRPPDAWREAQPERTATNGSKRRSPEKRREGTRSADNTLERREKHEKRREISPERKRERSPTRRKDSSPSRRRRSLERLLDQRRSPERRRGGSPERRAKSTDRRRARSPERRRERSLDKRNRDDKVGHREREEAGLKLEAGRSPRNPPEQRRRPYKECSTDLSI
row,Variant,effect of a mutation on the interaction
1,Y189A,disrupting interaction strength
2,Y207A,decreasing interaction strength

# Variants of: B3
# Conditions: with wwtr1_human WWTR1, Q9GZV5
# wwtr1_human WWTR1, Q9GZV5, sequence (Q9GZV5 whole entry): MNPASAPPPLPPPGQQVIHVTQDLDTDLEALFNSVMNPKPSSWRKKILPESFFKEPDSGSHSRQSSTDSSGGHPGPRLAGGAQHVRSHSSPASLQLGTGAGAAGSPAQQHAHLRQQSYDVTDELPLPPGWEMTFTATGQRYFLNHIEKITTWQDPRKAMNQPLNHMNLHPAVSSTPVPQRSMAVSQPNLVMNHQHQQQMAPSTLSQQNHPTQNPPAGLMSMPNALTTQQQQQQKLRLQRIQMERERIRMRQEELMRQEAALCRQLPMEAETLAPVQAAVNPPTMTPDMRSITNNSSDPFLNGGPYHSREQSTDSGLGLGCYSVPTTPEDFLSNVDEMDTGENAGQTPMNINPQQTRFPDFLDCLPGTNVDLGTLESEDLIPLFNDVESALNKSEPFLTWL
row,Variant,effect of a mutation on the interaction
1,Y189A,disrupting interaction strength
2,Y207A,with no effect

# Variants of: B3
# Conditions: with YAP1, P46937-3
row,Variant,effect of a mutation on the interaction
1,Y189A,disrupting interaction strength
2,Y207A,with no effect

# Variants of: B3
# Conditions: with ned4l_human NEDD4L
row,Variant,effect of a mutation on the interaction
1,Y189A,disrupting interaction strength
2,Y207A,with no effect

# Variants of: B3
# Conditions: with nedd4_human NEDD4, P46934
# nedd4_human NEDD4, P46934, sequence (P46934 whole entry): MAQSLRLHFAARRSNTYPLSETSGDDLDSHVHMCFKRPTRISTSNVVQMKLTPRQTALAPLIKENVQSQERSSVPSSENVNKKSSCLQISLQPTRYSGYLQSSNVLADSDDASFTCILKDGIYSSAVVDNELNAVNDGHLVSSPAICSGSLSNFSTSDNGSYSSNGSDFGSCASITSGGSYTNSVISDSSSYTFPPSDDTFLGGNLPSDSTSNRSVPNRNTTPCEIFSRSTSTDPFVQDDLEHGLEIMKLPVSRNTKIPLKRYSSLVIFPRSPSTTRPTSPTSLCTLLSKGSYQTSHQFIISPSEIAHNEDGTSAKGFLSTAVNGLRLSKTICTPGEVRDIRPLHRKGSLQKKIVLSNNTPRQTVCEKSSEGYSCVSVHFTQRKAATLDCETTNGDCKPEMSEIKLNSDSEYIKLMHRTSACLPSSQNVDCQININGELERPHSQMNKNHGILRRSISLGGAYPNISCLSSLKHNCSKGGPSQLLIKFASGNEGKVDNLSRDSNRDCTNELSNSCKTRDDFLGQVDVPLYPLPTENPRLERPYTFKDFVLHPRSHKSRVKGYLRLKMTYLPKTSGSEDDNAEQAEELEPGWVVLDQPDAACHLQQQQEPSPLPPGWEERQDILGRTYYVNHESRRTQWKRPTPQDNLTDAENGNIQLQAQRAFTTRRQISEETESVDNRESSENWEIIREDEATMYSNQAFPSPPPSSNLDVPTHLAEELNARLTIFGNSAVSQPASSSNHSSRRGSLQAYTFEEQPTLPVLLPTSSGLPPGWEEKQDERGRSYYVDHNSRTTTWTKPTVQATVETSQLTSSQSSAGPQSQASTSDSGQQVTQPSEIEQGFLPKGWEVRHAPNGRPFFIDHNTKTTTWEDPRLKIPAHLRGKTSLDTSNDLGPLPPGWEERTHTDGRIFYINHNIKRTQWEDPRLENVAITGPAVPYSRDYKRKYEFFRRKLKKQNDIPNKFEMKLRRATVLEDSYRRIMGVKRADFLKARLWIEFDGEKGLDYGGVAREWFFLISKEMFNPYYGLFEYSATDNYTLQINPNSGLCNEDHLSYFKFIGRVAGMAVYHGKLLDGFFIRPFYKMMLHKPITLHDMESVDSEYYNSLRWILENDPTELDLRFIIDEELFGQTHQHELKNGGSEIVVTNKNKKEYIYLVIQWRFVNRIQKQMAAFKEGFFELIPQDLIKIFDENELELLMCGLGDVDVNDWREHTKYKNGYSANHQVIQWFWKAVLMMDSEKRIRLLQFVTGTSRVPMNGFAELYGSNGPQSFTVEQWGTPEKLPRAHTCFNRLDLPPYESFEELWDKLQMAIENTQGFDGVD
row,Variant,effect of a mutation on the interaction
1,Y189A,disrupting interaction strength
2,Y207A,with no effect
